Data reported in patent US11549134B2, “Modified amadoriase and method for producing the same, agent for improving surfactant resistance of amadoriase and composition for measuring HbA1c using the same” (Kikkoman Corporation, priority 2013, dated 2023).

Key:
[1] = Surfactant resistance (residual activity) of CFP-T7 single variants, 0.01% CTAC; format: biochemical; conditions: 30°C, 5 minutes, 30 mM MES/21 mM Tris buffer (pH6.5), crude enzyme
Experimental: Reagent 1 (2.7 ml), reagent 2 (100 μl) and reagent 3 (100 μl) were mixed and preheated at 37° C. for 5 minutes. Then, to the mixture, an enzyme solution (100 μl) was added and thoroughly mixed. Thereafter, the absorbance of the mixture at 555 nm is measured by a spectrophotometer (U-3010, manufactured by Hitachi High-Technologies). Measurement is performed at 555 nm from one minute to three minutes and an absorbance change per minute is specified as the measurement value. A control solution is prepared in the same manner as above except that ion-exchanged water (100 μl) is used in place of reagent 3 (100 μl).
An amadoriase crude enzyme solution or an amadoriase purified sample is diluted with a 30 mM MES/21 mM Tris buffer solution (pH6.5) so as to have a concentration of about 1.0 U/ml. To this, CTAC (for example, manufactured by Tokyo Kasei Kogyo Co., Ltd.) is added so as to obtain a final concentration 0.01% (w/v) or 0.04%. The resultant mixture is heated at 30° C. for 5 minutes. After heating, the mixture is diluted double with a 10 mM phosphate buffer (pH7.0) containing 0.15% BSA to prepare a sample. The enzyme activities of the sample before and after a surfactant treatment are measured by the method described in Section B above. […] In this manner, surfactant resistance is evaluated. […]

[2] = Surfactant resistance (residual activity), 0.04% SDS; format: biochemical; conditions: 30 mM MES/21 mM Tris buffer (pH 6.5)
Experimental: An amadoriase crude enzyme solution or an amadoriase purified sample is diluted with a 30 mM MES/21 mM Tris buffer solution (pH6.5) so as to have a concentration of about 1.0 U/ml. To this, CTAC (for example, manufactured by Tokyo Kasei Kogyo Co., Ltd.) is added so as to obtain a final concentration 0.01% (w/v) or 0.04%. The resultant mixture is heated at 30° C. for 5 minutes. After heating, the mixture is diluted double with a 10 mM phosphate buffer (pH7.0) containing 0.15% BSA to prepare a sample. The enzyme activities of the sample before and after a surfactant treatment are measured by the method described in Section B above. […] In this manner, surfactant resistance is evaluated.
The stability of CFP-D was evaluated using sodium dodecyl sulfate (hereinafter indicated with “SDS”) in place of the surfactant CTAC used in Example 2. The surfactant resistance of the modified amadoriases was evaluated in accordance with a measurement method for surfactant resistance according to Example 1 although under surfactant treatment conditions in which the amadoriases were each diluted in a 30 mM MES/21 mM Tris buffer solution (pH 6.5) and mixed with 0.04% SDS. In this respect, it was confirmed that when the warmed sample was again measured for activity 30 minutes after 2-fold dilution in a BSA solution, there was no change in the activity value.

CFP-T7 = test: Surfactant resistance of amadoriase during addition of each stabilizer (CFP-T7); format: biochemical, genus Coniochaeta; conditions: Stabilizer None, 500 mM HEPES (pH 7.0), 0.01% CTAC
Experimental: In the above surfactant resistance measuring method, various stabilizers are added and the residual activity of an amadoriase is measured in order to evaluate the effect of the stabilizers. […] The concentration sufficient to provide a buffer capacity to a solution refers to the concentration at which pH is maintained within a predetermined range (for example pH5 to 10, pH6 to 8) without having pH change due to other reagents added to the solution. A concentration insufficient to provide a buffer capacity to a solution refers to the concentration at which pH changes by addition of other reagents to the solution and pH falls outside a particular range. These concentrations vary depending upon the type and amount of other reagents to be added to a solution; however, a person skilled in the art can appropriately determine the concentration by conventional methods. Other conditions and procedure can be the same as in the above surfactant resistance measuring method.
It was studied whether or not the addition of any of various stabilizers enhanced the surfactant resistance of an amadoriase. Phosphoric acid, a tricarboxylic acid (e.g., citric acid), a dicarboxylic acid (e.g., malic acid, maleic acid, citraconic acid, malonic acid, glutaric acid, or tartaric acid), a monpcarboxylic acid (e.g., acetic acid), MES, MOPS, MOPSO, or ammonium sulfate was used as a stabilizer. As a Comparative Example, CHES was used. To prevent change in pH when adding the stabilizer, 500 mM HEPES (pH 7.0) was used as a buffer solution; CFP-T7 purified as described above was used as a sample; the final concentration of CTAC was set at 0.01%; and any of the stabilizers was further added to evaluate the surfactant resistance of CFP-T7 according to the measurement method for surfactant resistance in Example 1. Using a 500 mM HEPES (pH 7.0) buffering agent and CFP-D2 purified as described above as a sample, any of the stabilizers was further added, and the surfactant resistance of CFP-D2 was evaluated according to the measurement method for surfactant resistance in Example 1 although under more harsh surfactant treatment conditions in which the final concentration of CTAC was set at 0.08% and the treatment temperature at 37° C.

B1: CFP-T7: amadoriase derived from the genus Coniochaeta, SEQ ID NO: 1; triple variant with mutations at positions 272, 302 and 388 (protein, listed as Coniochaeta sp.)
chain: MTSNRADTRVIVVGGGGTIGSSTALHLVRSGYAPANITVLDTFEIPSAQSAGHDLNKIMGIRLRNKVDLQMSLEARQMWKEDELFQPFFHNTGRMDCEHTPEGIEDLKKQYQALHDAGAGLEKTHAWLDNEDEILSKMPLLQRDQIQGWKAIWSQDGGWLAAAKAINAIGQFLKERGVKFGFGGAGSFKQPLFDDEGTTCIGVETADGTKYYADKVVLAAGAWSPTLVDLEDQCCSKAWVYAHIQLTPEEAAEYKGVPVVYNGEFGFFFEPDEFGVIKVCDEFPGFSRFKEHQPYGAPSPKRISVPRSHAKHPTDTYPDASEVSIKKAIATFLPRFQDKELFNRALCWCTDTADAALLMCEHPKWKNFILATGDSGHSFKILPNVGKYVVELIEGRLPEEMAYQWRWRPGGDALKSRRAAPPKDLADMPGWKHDPKL
[1]
  Residual Activity(%): 69.9%
[2]
  Residual Activity(%): 2.76%
CFP-T7; Table 9-1
  CFP-T7 Residual Activity (%): 4.7%
CFP-T7; Table 9-2
  CFP-T7 Residual Activity (%): 3.1%
